Experimental data reported in PMC9029710, “Improvement of Biocatalytic Properties and Cytotoxic Activity of L-Asparaginase from Rhodospirillum rubrum by Conjugation with Chitosan-Based Cationic Polyelectrolytes” (Pharmaceuticals, 2022).

Substrate: NC(=O)C[C@H](N)C(=O)O
Assay: circular dichroism hydrolysis assay
Type: biochemical, Rhodospirillum rubrum
Settings: native RrA, pH 7.5, 5 mM citrate-phosphate-borate buffer, 37 °C
Description: circular dichroism hydrolysis assay on RrA (L-asparaginase from Rhodospirillum rubrum)

B1: RrA (L-asparaginase from Rhodospirillum rubrum) (Rhodospirillum rubrum ATCC 11170) (protein)
chain: MAVSPSPLRIFTAGGTIDKDYRLEENGLVVGDPFVAEVLKTARLAGAVSIVALSRKDSLDFTEADREAIGRAVGQAVEDHILLTHGTDTMVETARYLGGLPELAGKTVVLSGAMVPGRVGGSDAAFNIGFACAAALMLAPGVYIAMHGKVFDPAKTRKNRGLGRFEPIDDQE
notes: 172 aa, 18 kDa, tetramer; native unconjugated enzyme
Km: 4.8 ± 1.6 mM
Vmax: 59 µmol/min/mg
Vmax/Km: 12300 µL/min/mg
